We go through three molecules from patent US20050154192A1 (published 2005).

Experiment [1] deals with Recombinant Human IL-13 Rα1/Fc Chimera (R&D) (human) (UniProt P78552). Nature of the experiment: SPR (BIACORE), same format; rat IgG control, by definition the 0% reference.
Experiment [2] has as its target Recombinant Mouse IL-13 Rα1/Fc Chimera (R&D) (mouse) (UniProt O09030). The experiment is described as above.
Experiment [3] deals with T1, human IL13 Rα1-Fc (fusion of the extracellular domain of human IL13 receptor α1 and an Fc fragment of human … (human, UniProt P78552 22-343)).
T1 construct: extracellular domain; also called soluble IL13 receptor α1-Fc; not shown: human IgG1 Fc domain (cDNA from plasmid pM1304, WO97/42319), joined in frame over a HindIII site
T1 sequence (looked up): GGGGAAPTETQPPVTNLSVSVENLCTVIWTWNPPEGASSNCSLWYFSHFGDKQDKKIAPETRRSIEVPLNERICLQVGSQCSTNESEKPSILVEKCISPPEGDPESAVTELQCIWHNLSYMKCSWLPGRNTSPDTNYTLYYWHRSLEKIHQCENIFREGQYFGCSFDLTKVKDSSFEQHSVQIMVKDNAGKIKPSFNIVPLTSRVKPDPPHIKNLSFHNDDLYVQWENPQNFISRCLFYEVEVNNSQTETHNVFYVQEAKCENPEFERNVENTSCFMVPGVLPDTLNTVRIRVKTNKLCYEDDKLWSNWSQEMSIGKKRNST
Nature of the experiment: SPR (BIACORE), human IL13 Rα1-Fc immobilized on CM5 chip, antibody at 2, 10 and 50 µg/ml. Here is the method:
The association constant of the anti-IL13 Rα1 antibody prepared was determined using BIACORE. That is, a CM5 chip (Biacore CO., Ltd.) was activated for 7 minutes according to the manual of Biacore Co., Ltd. and then 100 μg/ml of the human IL13 Rα1-Fc prepared in Example 1 was immobilized thereon. An HBS-EP buffer solution (Biacore Co., Ltd) was flown at a flow rate of 20 μl/min, and then the association constants of four kinds of the antibodies diluted to 2, 10, and 50 μg/ml with the same buffer solution were obtained. The binding antibody was dissociated with a 0.1-M glycine hydrochloric acid buffer solution (pH 3.0) and the chip was then used again. The resulting data was analyzed using analyzing software, BIA evaluation, Biacore Co., Ltd., and the dissociation constant (Kd) thereof was calculated.
On the technique in general: Surface plasmon resonance follows binding to a sensor surface in real time, without labels.

Experiment [4] addresses T2, IL13 receptor α1 on TF-1 cells (human, UniProt P78552 22-427).
T2 sequence (looked up): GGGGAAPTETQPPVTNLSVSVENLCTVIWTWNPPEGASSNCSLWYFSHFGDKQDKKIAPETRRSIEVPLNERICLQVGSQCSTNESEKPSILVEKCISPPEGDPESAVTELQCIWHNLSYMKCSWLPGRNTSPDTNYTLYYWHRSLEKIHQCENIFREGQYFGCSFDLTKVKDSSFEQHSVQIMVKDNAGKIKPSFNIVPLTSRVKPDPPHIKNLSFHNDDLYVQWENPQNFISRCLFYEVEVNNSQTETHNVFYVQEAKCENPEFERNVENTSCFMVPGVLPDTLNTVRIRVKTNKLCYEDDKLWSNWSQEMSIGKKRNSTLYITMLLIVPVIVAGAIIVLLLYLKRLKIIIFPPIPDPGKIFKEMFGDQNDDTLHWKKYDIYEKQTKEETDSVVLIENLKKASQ
Briefly: cell-based or functional assay.

Chain of Recombinant Mouse IL-13 Rα1/Fc Chimera (R&D) (mouse) (O09030 26-340 limits assumed, change not shown): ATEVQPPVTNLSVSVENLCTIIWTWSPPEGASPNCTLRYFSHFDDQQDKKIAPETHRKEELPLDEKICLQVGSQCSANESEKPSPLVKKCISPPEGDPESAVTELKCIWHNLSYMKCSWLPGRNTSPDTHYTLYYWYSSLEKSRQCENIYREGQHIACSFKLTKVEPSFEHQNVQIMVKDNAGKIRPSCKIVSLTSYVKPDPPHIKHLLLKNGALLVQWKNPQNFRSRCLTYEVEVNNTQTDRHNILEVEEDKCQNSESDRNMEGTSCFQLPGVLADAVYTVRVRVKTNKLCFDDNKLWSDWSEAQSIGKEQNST

As for rat IgG (control antibody), the Human IL13/IL13 R binding inhibition rate (%) in experiment [1] worked out at 0%. The Mouse IL13/IL13 R binding inhibition rate (%) in experiment [2] turned out to be 0%.

B1: F997-20-1 antibody (antibody, IgG1, V domains shown)
VH: EVQLQQSGGGLVQPGRSLNLSCAASGFTFNDYYMAWVRQAPKKGLEWVATIIYDGTRTYYRDSVKGRFTISRDNAKSTLYLQMDSLRSEDTATYYCATPWGSWGQGTTVTVSS
VL: DIQMTQSPSSMPASLGERVTISCRASQGISNFLNWYQQKADGTIKPLIYYTSNLQSAVPSRFSGSGSGTDYSLTISSLEPEDFAMYYCQQYDSSPWTFGGGTKLEITR
The term Kd denotes the concentration at which binding is half-saturated. Take B1: the affinity in experiment [3], expressed as Kd, was 1.07 nM. For the same molecule, in experiment [4], the “IC50 (µg/mL) for cell response with IL 4 (1 ng/mL); TF-1 proliferation” value was above 10 µg/mL and the “IC50 (µg/mL) for cell response with IL 13 (1 ng/mL); TF-1 proliferation” value was 1.2 µg/mL.

B2: F997-13-1 antibody (antibody, IgG1, V domains shown)
VH: EVKLQQSGGGLVQPGRSMKLSCAASGFTFSNYGMAWVRQAPKKGLEWVAYISYDGGSTYYRDSVKGRFTISRDNAKSTLYLQMDSLRSEDTATYHCTTPHYGYKYWYFDFWGQGTTVTVSS
VL: DIQMTQSPASLSASLGETVTIECRASEDIYNGLAWYQQKPGKSPQLLIYHANSSHTGVPSRFSGSGSGTQYSLKIDSLQSEDVANYFCQQYYDYPTFGAGTKLELKR
In experiment [3], B2 showed a Kd of 4.1 nM. Moreover, in experiment [4], the “IC50 (µg/mL) for cell response with IL 4 (1 ng/mL); TF-1 proliferation” value was above 10 µg/mL and the “IC50 (µg/mL) for cell response with IL 13 (1 ng/mL); TF-1 proliferation” value worked out at 6.6 µg/mL.
